Laboratory results reported in article doi:10.1101/2020.08.12.247809 (bioRxiv, 2020).

Key:
[1] = target: GST-HDAC1 (mouse, UniProt O09106 1-482); assay: pull-down
[2] = target: the molecule itself; assay: SEC

Sequence of GST-HDAC1 (O09106 whole entry): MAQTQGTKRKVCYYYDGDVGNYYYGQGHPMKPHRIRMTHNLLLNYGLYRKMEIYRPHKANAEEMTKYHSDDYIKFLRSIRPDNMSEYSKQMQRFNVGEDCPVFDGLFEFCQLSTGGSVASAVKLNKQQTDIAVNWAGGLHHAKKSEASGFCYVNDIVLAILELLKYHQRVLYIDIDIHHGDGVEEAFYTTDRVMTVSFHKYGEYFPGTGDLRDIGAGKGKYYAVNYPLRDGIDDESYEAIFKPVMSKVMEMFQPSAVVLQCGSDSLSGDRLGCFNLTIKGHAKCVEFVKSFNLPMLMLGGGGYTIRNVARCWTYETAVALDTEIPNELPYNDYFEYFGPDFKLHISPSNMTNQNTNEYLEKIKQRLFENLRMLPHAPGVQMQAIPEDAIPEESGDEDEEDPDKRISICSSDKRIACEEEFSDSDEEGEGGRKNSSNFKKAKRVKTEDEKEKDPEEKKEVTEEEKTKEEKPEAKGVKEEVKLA

B1: His6-KIAA1841(BTB) (domain or fragment, mouse, UniProt Q68FF0-1 144-261, looked up)
chain: GPNMVIHVCDEAKSLKEDFICPRDLLISEMKYFAEYLSMDAQRWEEVDISVHCDVHIFNWLIKYVKRNTKESKDCEIPALEPGNVISILISSEFLKMDSLVEQCIQYCHKNMNAIVAA
binding result [1]: binds
stoichiometry N [2]: 2
